What was measured:
[1] = target: BH-REC1 fragment of NmeCas9 (Neisseria meningitides); assay: ITC
[2] = target: NmeCas9 (Neisseria meningitides) (UniProt C9X1G5); assay: ITC
Chain of NmeCas9 (Neisseria meningitides) (C9X1G5 whole entry): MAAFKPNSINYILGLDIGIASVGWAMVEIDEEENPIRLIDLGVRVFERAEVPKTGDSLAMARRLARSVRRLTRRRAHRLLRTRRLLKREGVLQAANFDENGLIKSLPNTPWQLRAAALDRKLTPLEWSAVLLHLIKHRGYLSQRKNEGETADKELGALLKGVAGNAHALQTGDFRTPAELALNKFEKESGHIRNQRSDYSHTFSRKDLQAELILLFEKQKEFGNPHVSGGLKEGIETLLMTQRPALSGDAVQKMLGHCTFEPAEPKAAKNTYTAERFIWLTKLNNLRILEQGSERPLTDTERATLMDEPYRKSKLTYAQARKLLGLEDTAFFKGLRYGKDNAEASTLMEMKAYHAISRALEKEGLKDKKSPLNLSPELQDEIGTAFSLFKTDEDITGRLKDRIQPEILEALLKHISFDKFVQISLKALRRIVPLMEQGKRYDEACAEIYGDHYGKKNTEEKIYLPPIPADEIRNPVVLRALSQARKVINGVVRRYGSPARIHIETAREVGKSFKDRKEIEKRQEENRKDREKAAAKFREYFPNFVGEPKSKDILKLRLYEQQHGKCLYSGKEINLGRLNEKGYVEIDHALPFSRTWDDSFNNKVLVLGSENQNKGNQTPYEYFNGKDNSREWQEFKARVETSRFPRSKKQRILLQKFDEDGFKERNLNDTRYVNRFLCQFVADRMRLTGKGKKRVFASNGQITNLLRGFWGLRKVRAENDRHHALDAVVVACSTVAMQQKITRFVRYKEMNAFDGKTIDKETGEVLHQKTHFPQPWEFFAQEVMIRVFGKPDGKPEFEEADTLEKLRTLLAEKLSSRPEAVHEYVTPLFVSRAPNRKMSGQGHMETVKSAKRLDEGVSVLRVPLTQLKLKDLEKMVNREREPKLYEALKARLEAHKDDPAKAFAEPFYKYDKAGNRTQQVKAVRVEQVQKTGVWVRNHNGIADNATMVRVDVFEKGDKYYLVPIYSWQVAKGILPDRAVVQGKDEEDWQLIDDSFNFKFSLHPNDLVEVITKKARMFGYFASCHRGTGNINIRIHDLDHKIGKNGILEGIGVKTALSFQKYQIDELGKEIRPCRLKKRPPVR

AcrIIA17 D81A/E84A mutant (natural protein)
fold reduction in binding affinity against wild-type AcrIIA17 [1]: 20 fold

AcrIIA17 (natural protein)
fold reduction of the binding affinity in high salt against 300 mM salt [1]: 10 fold | Kd [2]: 5 nM | stoichiometry N [2]: 1

From publication PMC8754659
